Measurements reported in CN101415728A (dated 2009).

B1: M14-G11.G4.P (antibody, human IgG4, V domains shown, not shown: a dimerising Fc or GST)
VH: EVQLLESGGGLVQPGGSLRLSCAASGFTFSNYPMYWVRQAPGKGLEWVSRISSSGGRTVYADSVKGRFTISRDNSKNTLYLQMNSLRAEDTAVYYCARDRWSRSAAEYGLGGYWGQGTLVTVSS
VL: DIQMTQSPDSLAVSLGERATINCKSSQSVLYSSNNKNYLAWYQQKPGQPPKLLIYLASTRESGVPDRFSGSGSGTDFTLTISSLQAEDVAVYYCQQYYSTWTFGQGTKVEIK
B2: 小鼠IGF-1R(1-903)-Fc (Fc fusion)
chain: not shown
notes: range 1-903; also called mIGF-1R-Fc; mIGF1R; not shown: C-terminal human IgG1-Fc tag
B3: M13-C06 Fab (Fab, V domains shown)
VH: EVQLLESGGGLVQPGGSLRLSCAASGFTFSIYRMQWVRQAPGKGLEWVSGISPSGGTTWYADSVKGRFTISRDNSKNTLYLQMNSLRAEDTAVYYCARWSGGSGYAFDIWGQGTMVTVSS
VL: DIQMTQSPLSLSASVGDRVTITCQASRDIRNYLNWYQQKPGKAPKLLIYDASSLQTGVPSRFGGSGSGTDFSFTIGSLQPEDIATYYCQQFDSLPHTFGQGTKLEIK
notes: Human Fab from a phage library (VH3-23 germline framework, kappa light chain)
B4: M13-C06 antibody (full-length, IgG4 version not stated) (antibody, V domains shown)
VH: B3 VH
VL: B3 VL
notes: Fully human full-length antibody; In tr-FRET it carried a europium chelate (10.3:1 Eu:C06); also called M13-C06_Ab; Eu-C06
B5: M14-B01 Fab (Fab, V domains shown)
VH: EVQLLESGGGLVQPGGSLRLSCAASGFTFSNYHMAWVRQAPGKGLEWVSVISPTGGRTTYADSVKGRFTISRDNSKNTLYLQMNSLRAEDTATYYCARAGYSYGYGYFDYWGQGTLVTVSS
VL: DIQMTQFPATLSVSPGERATLSCRASQSVMRNLAWYQQKPGQPPRLLIYGASKRATGIPARFSGSGSGTAFTLTISNLEPEDFAVYYCHQRSTWPLGTFGPGTKLEAK
notes: Human Fab from a phage library (VH3-23, kappa)
B6: M12-E01 Fab (Fab, V domains shown)
VH: EVQLLESGGGLVQPGGSLRLSCAASGFTFSPYSMLWVRQAPGKGLEWVSSIGSSGGSTRYADSVKGRFTISRDNSKNTLYLQMNSLRAEDTAMYYCARVRGILHYDILIGRNLYYYYMDVWGKGTTVTVSS
VL: QYELTQPPSVSEAPRQRVTISCSGSSSNIGNNAINWYQQLPGKPPKLLIYYDDLLPSGVSDRFSGSKSGTSGSLAISGLQSEDEADYYCAAWDDNLNGVIFGGGTKLTVL
notes: Human Fab from a phage library (VH3-23, lambda light chain)

Columns and labels:
[1] = molecular target: human IGF-1R expressed on cells (human); experiment: cell-based or functional assay
[2] = molecular target: B4; experiment: tr-FRET competition against Cy5-IGF1R-His10 for Eu-C06
小鼠IGF-1R(1-903)-Fc [3] = molecular target: B2; experiment: SPR, compared with hIGF-1R-Fc
小鼠IGF-1R(1-903)-Fc [4] = molecular target: B2; experiment: SPR, receptor-Fc captured by anti-human IgG-Fc, Fab injected, 1:1 model
小鼠IGF-1R(1-903)-Fc [5] = molecular target: B2; experiment: SPR, receptor-Fc captured by anti-human IgG-Fc, Fab injected, 1:1 model (also printed as 89.1nM)
人INSR(28-956)-His 10 [6] = molecular target: T1, 人INSR(28-956)-His 10 (human, UniProt P06213 28-956); experiment: ELISA on plates coated with rh-INSR
T1 construct: range 28-956; Bought from R&D Systems; also called INSR-His 10; rh-INSR (R&D Systems #1544-IR)

小鼠IGF-1R(1-903)-Fc [7] = molecular target: B2; experiment: SPR, second run with 3 h dissociation
人INSR(28-956)-His 10 [8] = molecular target: T1, 人INSR(28-956)-His 10; experiment: tr-FRET competition (Eu-C06 / Cy5-hIGF-1R-His10)

T1 sequence (P06213 other isoform, or with tags, fused parts or gaps limits assumed): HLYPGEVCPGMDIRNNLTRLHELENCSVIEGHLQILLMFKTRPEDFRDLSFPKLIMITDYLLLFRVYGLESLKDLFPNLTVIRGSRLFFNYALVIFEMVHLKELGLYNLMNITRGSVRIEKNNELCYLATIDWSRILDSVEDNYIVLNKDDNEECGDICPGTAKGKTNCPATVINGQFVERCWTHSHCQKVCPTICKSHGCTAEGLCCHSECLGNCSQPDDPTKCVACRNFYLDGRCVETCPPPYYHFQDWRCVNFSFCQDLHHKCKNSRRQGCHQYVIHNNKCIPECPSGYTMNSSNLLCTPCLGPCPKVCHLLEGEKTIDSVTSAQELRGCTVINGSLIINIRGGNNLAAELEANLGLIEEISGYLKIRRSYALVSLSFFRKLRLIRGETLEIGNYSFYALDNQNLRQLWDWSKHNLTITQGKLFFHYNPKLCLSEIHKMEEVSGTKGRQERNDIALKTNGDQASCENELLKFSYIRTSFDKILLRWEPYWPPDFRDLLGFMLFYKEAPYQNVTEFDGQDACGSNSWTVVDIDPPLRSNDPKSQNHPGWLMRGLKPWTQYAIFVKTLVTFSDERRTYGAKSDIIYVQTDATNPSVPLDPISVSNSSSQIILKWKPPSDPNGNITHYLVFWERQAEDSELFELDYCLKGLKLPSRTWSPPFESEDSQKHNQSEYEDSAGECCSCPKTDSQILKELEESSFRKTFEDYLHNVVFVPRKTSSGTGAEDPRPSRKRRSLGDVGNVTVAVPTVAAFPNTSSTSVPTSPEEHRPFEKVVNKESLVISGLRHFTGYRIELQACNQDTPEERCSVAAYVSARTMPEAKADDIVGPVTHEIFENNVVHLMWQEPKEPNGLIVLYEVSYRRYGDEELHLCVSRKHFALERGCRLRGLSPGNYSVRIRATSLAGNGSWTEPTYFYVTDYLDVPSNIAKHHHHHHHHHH
Chain of 小鼠IGF-1R(1-903)-Fc (Q60751 31-933 limits assumed): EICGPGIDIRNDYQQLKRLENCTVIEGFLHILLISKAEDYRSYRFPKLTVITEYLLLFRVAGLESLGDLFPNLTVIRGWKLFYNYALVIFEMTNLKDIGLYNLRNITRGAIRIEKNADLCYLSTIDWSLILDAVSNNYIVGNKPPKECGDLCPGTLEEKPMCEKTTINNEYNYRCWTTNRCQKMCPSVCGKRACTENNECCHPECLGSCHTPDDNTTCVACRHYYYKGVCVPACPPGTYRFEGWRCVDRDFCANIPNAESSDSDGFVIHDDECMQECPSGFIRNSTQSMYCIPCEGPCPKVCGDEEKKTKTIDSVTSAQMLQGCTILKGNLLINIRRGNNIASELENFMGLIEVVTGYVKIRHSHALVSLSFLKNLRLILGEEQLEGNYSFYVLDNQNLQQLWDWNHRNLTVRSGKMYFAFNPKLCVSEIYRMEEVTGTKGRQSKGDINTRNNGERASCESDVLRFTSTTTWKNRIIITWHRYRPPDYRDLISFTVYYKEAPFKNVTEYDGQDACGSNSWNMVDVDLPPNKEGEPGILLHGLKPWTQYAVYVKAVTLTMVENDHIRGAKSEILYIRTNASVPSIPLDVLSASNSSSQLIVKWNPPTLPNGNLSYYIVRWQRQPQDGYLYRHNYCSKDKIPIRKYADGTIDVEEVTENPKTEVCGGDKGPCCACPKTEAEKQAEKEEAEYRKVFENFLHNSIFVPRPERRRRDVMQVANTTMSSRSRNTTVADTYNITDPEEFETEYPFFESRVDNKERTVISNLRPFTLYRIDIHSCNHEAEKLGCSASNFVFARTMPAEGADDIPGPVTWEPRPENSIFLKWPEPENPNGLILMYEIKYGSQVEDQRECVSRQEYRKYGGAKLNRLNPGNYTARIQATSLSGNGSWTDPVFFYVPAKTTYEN

B1 was tested, and the “inhibition of IGF-1- and IGF-2-mediated IGF-1R phosphorylation in MCF-7 cells, EC50” value [1] was less than 1 nM.

For B2, the IC50 [2] was greater than 100 µg/mL.

For B3, the “fold decrease of binding against human IGF-1R” value (小鼠IGF-1R(1-903)-Fc [3]) was 100 fold, the kon (小鼠IGF-1R(1-903)-Fc [4]) was 471 M⁻¹ s⁻¹ and the Kd (小鼠IGF-1R(1-903)-Fc [5]) was 89.1 nM. For the same binder, the binding result (人INSR(28-956)-His 10 [6]) was “no binding (tested: 2μM)” and the koff (小鼠IGF-1R(1-903)-Fc [7]) was 4.2e-05 s⁻¹.

B4: no binding (tested: IC50以上100倍的浓度) (人INSR(28-956)-His 10 [8]).

B5: no binding (tested: 2μM) (人INSR(28-956)-His 10 [6]).

B6: no binding (tested: 2μM) (人INSR(28-956)-His 10 [6]).
